From US8268779B2, “Pharmaceutical composition comprising oxyntomodulin derivatives and a method for reducing body weight using the composition” (Merck Sharp & Dohme Corp., priority 2006, dated 2012)
Non-standard residues stand in square brackets, D forms with d. Residues, ends and D or L forms follow the SMILES beside them. No end group written: not given here. *: point of attachment. C3 = cysteine residue PEGylated via the side-chain thiol with branched methoxyPEG [(mPEG)2] of 40 kDa (Cys(mPEG)2 40 kDa); (mPEG)2 40 kDa = C3 = Cys(mPEG)2 40 kDa, cysteine PEGylated via side-chain thiol with branched mPEG of 40 kDa; Desaminohistidyl = O=C(CCc1c[nH]cn1)*; Met(O) = CS(=O)CC[C@H](N)C(=O)O; Aib = CC(C)(N)C(=O)O

Key:
hGLP-1R [1] = molecular target: T1, hGLP-1R (Homo sapiens, UniProt P43220); test: EC50 (hGLP-1R), nM | "+DPP-IV"
Method: (§1) Table printed on a drawing sheet, FIG.17
(§2) First copying reader's note: The "+DPP-IV" column is the hGLP-1R EC50 measured after incubation with DPP-IV, so stability is shown as a potency shift against the "-DPP-IV" column.
(§3) Where the first naming reader finds the target: head: EC50 (hGLP-1R), nM

hGLP-1R [2] = molecular target: T1, hGLP-1R; test: EC50 (hGLP-1R), nM | "-DPP-IV"
Method: as §1
Head of the field: EC50 (hGLP-1R), nM | "-DPP-IV"
as §2, §3

[3] = Hydrolysis sites on incubation in PBS containing 10% mouse or human plasma; format: in vitro ADME; conditions: 37° C.
Method: A detailed study was undertaken in which OXM139 was incubated in PBS containing 10% of mouse or human plasma at 37° C. Sample preparation was accomplished by mixing 1 μL of test solution and 1 μL of matrix (α-cyano) directly on the sample plate. After crystallization Tof spectrum was collected: Time points at 30, 60, 120 and 720 minutes were analyzed and compared with the same time points of the control test solutions. […] Specifically, Arg 17 was mutated to Glu and Arg 18 was mutated to Ala. The peptide OXM153 is the N-ethyl maleimide analog of OXM151. The peptide OXM154 is the conjugate obtained using a (mPEG)240 kDa from NOF Corporation (SUNBRIGHT GL2-400MA Maleimide).
A similar study of stability was performed on a GcgK series analog OXM144 to determine the primary sites of hydrolysis by incubation with PBS, containing 10% of either mouse or human plasma. […] For this reason, it was decided to introduce mutations at the sites 17 and 18 also in the GcgK analog series.

Male C57BL/6N mice = test: Acute effects on food intake and body weight in lean mice; format: in vivo, mouse; conditions: for overnight food intake and body weight gain in lean mice: FIG. 3; for overnight body weight gain in mice fed ad libitum: equimolar/similar doses
Method: Absolute changes in food intake were calculated for each animal by subtracting the amount of food remaining in the food hopper at the specified time points from that of the corresponding original pre-weighed aliquot. Absolute changes in body weight were calculated for each animal by subtracting the body weight of the animal prior to dosing from that of the corresponding animal at the specified time points. All values were reported as mean±SEM and peptide treatment groups were analyzed by the two-tailed unpaired Student's t test with reference to vehicle-treated animals. […] (FIG. 3)

[4] = test system: mutant form of the human GLP-1R; test: GLP-1R cAMP HTRF assay in transfected CHO cells; format: cell-based
[5] = molecular target: T2, recombinant soluble human DP-IV (Homo sapiens, UniProt P27487); test: Resistance to DP-IV cleavage (preincubation with DP-IV, then hGLP-1R cAMP HTRF assay); format: in vitro ADME; conditions: FIG. 1
T2 construct: recombinant soluble human DP-IV
Method: Activation of hGLP-1R was subsequently measured using the Cis Bio HTRF cAMP assay and compared to control peptides pre-incubated at 37° C. for 2 hours in the absence of DP-IV.

[6] = test system: islets from GCG-R−/− mice; test: GSIS in GCG-R-/- islets; conditions: 10 nM peptide
Method: (§4) To measure GSIS, islets were first preincubated for 30 minutes in the Krebs-Ringer bicarbonate (KRB) buffer with 2 mM glucose (in Petri dishes). […] Insulin was measured in aliquots of the incubation buffer by ELISA with a commercial kit (ALPCO Diagnostics, Windham, N.H.).

[7] = test system: islets from wild type C57BL/6 mice; test: Glucose-stimulated insulin secretion (GSIS) in wild type murine islets; format: cell-based, mouse
Method: as §4

[8] = test system: islets from GLP-1R−/− mice; test: GSIS in GLP-1R-/- islets; format: cell-based, mouse; conditions: 10 nM peptide, 16 mmol/l glucose
Method: as §4

WT mice = test: IPGTT with plasma glucose and insulin in WT mice; format: in vivo, mouse; conditions: OXM 0.3 mpk i.p., exendin-4 0.02 mpk i.p.
mice = test: Gastric emptying in mice; format: in vivo, mouse; conditions: maximally efficacious dose for glucose lowering
GLP-1R−/− mice = test: IPGTT with plasma glucose and insulin in GLP-1R-/- mice; format: in vivo, mouse
glucagon-like activity = test: Glucagon-like activity in vitro (FIG. 13)

T2 sequence (P27487 39-766 limits assumed): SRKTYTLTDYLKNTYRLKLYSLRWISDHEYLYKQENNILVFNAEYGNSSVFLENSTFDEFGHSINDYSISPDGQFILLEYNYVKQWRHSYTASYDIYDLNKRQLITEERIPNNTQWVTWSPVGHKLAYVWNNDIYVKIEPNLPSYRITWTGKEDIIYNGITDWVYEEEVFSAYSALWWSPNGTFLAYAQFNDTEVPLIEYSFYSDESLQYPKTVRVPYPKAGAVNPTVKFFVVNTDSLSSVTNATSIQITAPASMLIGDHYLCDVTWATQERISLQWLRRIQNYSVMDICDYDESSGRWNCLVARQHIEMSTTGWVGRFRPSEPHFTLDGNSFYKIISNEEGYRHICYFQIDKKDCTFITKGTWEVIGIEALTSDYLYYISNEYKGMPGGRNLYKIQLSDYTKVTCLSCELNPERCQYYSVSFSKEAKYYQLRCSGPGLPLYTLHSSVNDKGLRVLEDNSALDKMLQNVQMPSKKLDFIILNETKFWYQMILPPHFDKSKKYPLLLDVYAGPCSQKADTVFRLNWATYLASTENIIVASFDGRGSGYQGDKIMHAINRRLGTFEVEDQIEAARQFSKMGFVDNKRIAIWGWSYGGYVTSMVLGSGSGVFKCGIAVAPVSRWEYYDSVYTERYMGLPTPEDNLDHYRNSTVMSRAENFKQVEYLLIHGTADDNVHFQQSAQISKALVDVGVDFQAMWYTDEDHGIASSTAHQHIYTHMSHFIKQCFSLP

Row | Compound | EC50 (hGLP-1R [1]) [nM] | EC50 (hGLP-1R [2]) [nM] | further results
1 | HαDGTFTSDYSKYLDSRRAC3DFVQWLmNTKRNRNNIA-CONH2 [OXM125] | 42.5 | 3.9 | 
2 | HαQGTFTSDYSKYLDSRRAQDFVQWLmNTKRNRNNIAC3-CONH2 [OXM99] | 27.5 | 7.5 | 
3 | HαDGTFTSDYSKYLDSRRAQDFVQWLmNTKRNRNNIAC8-CONH2 [OXM139] |  |  | primary hydrolysis site [3]: bond between Arg17 and Arg18; secondary site of hydrolysis [3]: bond between Arg18 and Ala19
4 | HαQGTFTSDYSKYLDSRRAQC3FVQWLMNTKRNRNNIA-CONH2 (HXQGTFTSDYSKYLDSRRAQXFVQWLMNTKRNRNNIA; Aib2, C-terminal amide, conjugated Cys; Synthetic peptide based on the human oxyntomodulin sequence) [OXM105] | 36.7 | 28.5 | 
5 | HGQGTFTSDYSKYLDSRRAQDFVQWLMNTKRNRNNIAC2-COOH (HGQGTFTSDYSKYLDSRRAQDFVQWLMNTKRNRNNIAX; C2 conjugate at C-terminal cysteine; Synthetic peptide based on the human oxyntomodulin sequence) [OXM2] |  |  | overnight food intake and body weight gain in lean mice (Male C57BL/6N mice): reducing overnight food intake and body weight gain; overnight body weight gain in mice fed ad libitum (Male C57BL/6N mice): effective in reducing overnight body weight gain; potency against GLP-1R in vitro relative to native OXM [4]: significantly less potent than native OXM; hGLP-1R potency after preincubation of the peptide with DP-IV [5]: loss of potency
6 | H2αQGTFTSDYSKYLDSRRAQDFVQWLmNTKRNRNNIAC5-CONH2 (XXQGTFTSDYSKYLDSRRAQDFVQWLXNTKRNRNNIAX; Aib2, D-Met, C-terminal amide, modified Cys; Synthetic peptide based on the human oxyntomodulin sequence) [OXM112] | 10.9 | 6.9 | 
7 | HGQGTFTSDYSKYLDSRRAQDFVQWLMNTKRNRNNIAA-COOH (Synthetic peptide based on the human oxyntomodulin sequence) [OXM1] |  |  | overnight body weight gain in mice fed ad libitum (Male C57BL/6N mice): not efficacious
8 | CSCC[C@H](NC(=O)[C@H](CC(C)C)NC(=O)[C@H](Cc1c[nH]c2ccccc12)NC(=O)[C@H](CCC(N)=O)NC(=O)[C@@H](NC(=O)[C@H](Cc1ccccc1)NC(=O)[C@H](CC(=O)O)NC(=O)[C@H](CCC(N)=O)NC(=O)[C@H](C)NC(=O)[C@H](CCCNC(=N)N)NC(=O)[C@H](CCCNC(=N)N)NC(=O)[C@H](CO)NC(=O)[C@H](CC(=O)O)NC(=O)[C@H](CC(C)C)NC(=O)[C@H](Cc1ccc(O)cc1)NC(=O)[C@H](CCCCN)NC(=O)[C@H](CO)NC(=O)[C@H](Cc1ccc(O)cc1)NC(=O)[C@H](CC(=O)O)NC(=O)[C@H](CO)NC(=O)[C@@H](NC(=O)[C@H](Cc1ccccc1)NC(=O)[C@@H](NC(=O)CNC(=O)[C@H](CC(=O)O)NC(=O)C(C)(C)NC(=O)[C@@H](N)Cc1c[nH]cn1)[C@@H](C)O)[C@@H](C)O)C(C)C)C(=O)N[C@@H](CC(N)=O)C(=O)N[C@H](C(=O)N[C@@H](CCCCN)C(N)=O)[C@@H](C)O [OXM131] (H-H[Aib]DGTFTSDYSKYLDSRRAQDFVQWLMNTK-NH2; N-terminus assumed) | 2.2 | 0.9 | 
9 | HαDGTFTSDYSKYLDSRRAC8DFVQWLmNTK-CONH2 [OXM144] |  |  | primary hydrolysis site [3]: bond between Arg17 and Arg18; secondary site of hydrolysis [3]: bond between Arg18 and Ala19
10 | GLP-1: incretin hormone glucagon-like peptide 1, positive control |  |  | GSIS in GCG-R−/− islets ([6]; 16 mM glucose): significantly increased GSIS; fold-increase in fractional GSIS in GCG-R−/− islets ([6]; % insulin released relative to total islet insulin content): 2.5 fold; GSIS in WT islets ([7]; 10 nM peptide, 16 mmol/l glucose): enhanced GSIS in WT islets with equal efficacy; potentiation of GSIS in WT islets in the presence of exendin-9 ([7]; 0.5 μM exendin-9): completely blocked; potentiation of GSIS in GLP-1R−/− islets [8]: completely unable to enhance GSIS
11 | HGQGTFTSDYSKYLDSRRAQDFVQWLMNTKRNRNNIAC3-COOH (HGQGTFTSDYSKYLDSRRAQDFVQWLMNTKRNRNNIAX; C3 conjugate at C-terminal cysteine; Synthesized oxyntomodulin polypeptide) [OXM3] |  |  | overnight food intake and body weight gain in lean mice (Male C57BL/6N mice): reducing overnight food intake and body weight gain; overnight body weight gain in mice fed ad libitum (Male C57BL/6N mice): effective in reducing overnight body weight gain; potency against GLP-1R in vitro relative to native OXM [4]: significantly less potent than native OXM
12 | exendin-4: GLP-1 mimetic, GLP-1 receptor agonist used as comparator |  |  | reduction of glucose AUC relative to the vehicle group (WT mice): > 60%; reduction of gastric emptying (mice): 47%; basal insulin levels (GLP-1R−/− mice): did not affect basal insulin levels; insulin response to i.p. glucose challenge (GLP-1R−/− mice): nor did it improve the insulin response; glucose excursion in IPGTT (GLP-1R−/− mice; same doses): did not affect glucose excursion
13 | HαDGTFTSDYSKYLDSRRAQDFVQWLmNTKRNRNNIAC3-CONH2 [OXM117, (mPEG)240 kDa conjugate made with MPEG2-MAL-40K (NEKTAR)] |  |  | glucagon-like activity in vitro (glucagon-like activity): no glucagon-like activity

Now from value to compound, other results behind:

Row | EC50 (hGLP-1R [1]) [nM] | EC50 (hGLP-1R [2]) [nM] | Compound | further results
14 | 0.05 | 0.06 | H2αQGTFTSDYSKYLDSRRAQDFVQWLmNTKRNRNNIAC4-CONH2 (XXQGTFTSDYSKYLDSRRAQDFVQWLXNTKRNRNNIAX; Aib2, D-Met, C-terminal amide, conjugated Cys; Synthetic peptide based on the human oxyntomodulin sequence) [OXM114] | 
15 | 8.7 | 5.8 | HαQGTFTSDYSKYLDSRRAQDFVQWLMNTK-CONH2 (HXQGTFTSDYSKYLDSRRAQDFVQWLMNTK; Aib2, C-terminal amide; Synthetic peptide based on the human oxyntomodulin sequence) [OXM130] | 
16 | > 100 | > 100 | HαQGTFTSDYSC3YLDSRRAQDFVQWLmNTKRNRNNIA-CONH2 [OXM124] | 
17 | 14.5 | 7.6 | HαQGTFTSDYSKYLDSRRAQDFVQWLMC3TKRNRNNIA-CONH2 (HXQGTFTSDYSKYLDSRRAQDFVQWLMXTKRNRNNIA; Aib2, C-terminal amide, conjugated Cys; Synthetic peptide based on the human oxyntomodulin sequence) [OXM109] | 
18 | > 125 | > 125 | HαQGTFTSDYC3KYLDSRRAQDFVQWLmNTKRNRNNIA-CONH2 [OXM121] | 
19 | > 500 | > 500 | HαQGTFTSDYSKYLDSRRAQDC4VQWLmNTKRNRNNIA-CONH2 [OXM127] | 
20 | < 0.5 | 0.025 | HαDGTFTSDYSKYLDSRRAQDFVQWLmNTKRNRNNIAC4-CONH2 [OXM118] | 
21 | 184 | 22.5 | HαQGTFTSDYSKYLDSRRAQDFVQWLmNTKRNRNNIAC6-CONH2 [OXM100] | 
22 | 12.7 | 6.2 | HαQGTFTSDYSKYLDSRRAC3DFVQWLMNTKRNRNNIA-CONH2 (H[Aib]QGTFTSDYSKYLDSRRA[C3]DFVQWLMNTKRNRNNIA-NH2) [OXM103] | 
23 | 123 | 25 | H2αDGTFTSDYSKYLDSRRAC3DFVQWLmNTKRNRNNIA-CONH2 ([Desaminohistidyl][Aib]DGTFTSDYSKYLDSRRAC((mPEG)2 40 kDa)DFVQWL[Met(O)]NTKRNRNNIA-NH2) [OXM129] | 
24 | 182 | 29.7 | HαQGTFTSDYSKYLDSRRAQDFVC3WLmNTKRNRNNIA-CONH2 [OXM107] | 
25 | 41.3 |  | HαDGTFTSDYSKYLDSRRAQDFVQWLmNTKRNRNNIAC3-CONH2 (H[Aib]DGTFTSDYSKYLDSRRAQDFVQWL[Met(O)]NTKRNRNNIAC((mPEG)2 40 kDa)-NH2) [OXM117, (mPEG)240 kDa conjugate made with MPEG2-MAL-40K (NEKTAR)] | 
26 | 92.3 | 93.3 | H2αQGTFTSDYSKYLDSRRAQDFVQWLmNTKRNRNNIAC3-CONH2 (XXQGTFTSDYSKYLDSRRAQDFVQWLXNTKRNRNNIAX; Aib2, D-Met, C-terminal amide, conjugated Cys; Synthetic peptide based on the human oxyntomodulin sequence) [OXM113] | 
